Measured values published in the nanobody polyreactivity screen of Harvey et al. (2022).

Test: yeast display, Sf9 membrane polyspecificity reagent, FACS + sequencing; frameworks hold sequencing errors
Summary of the method: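 Sorting gates, low and high (top ~1%), were placed on anti-HA fluorescence to track expression and on streptavidin fluorescence to track reagent binding. A clone's polyreactivity label is taken from the gate it came out of. The reagent was 10% biotinylated, detergent-solubilized Sf9 membrane, applied for 1 hour at 4 °C to galactose-induced yeast display cells.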

| Sequence | polyreactivity (PSR sort gate) |
| --- | --- |
| QVQLVESGGGLVQAGGSLRLSSAASGRIFAKYAMGWYRQAPGKERELVAAISWGGGSTYYADSVKGRFTISRDNAKNTVYLQMNSLKPEDTAVYYCAARIPKQRDVRGSGMNYWGQGTQVTVSS | high polyreactivity |
| QVQLVESGGGLVQAGGSLRLSCAASGRTFTFYAMGWYRQAPGKERELVAAITWSGGSTYYADSVKGRFTISRDNAKNTVYLQRNSLKPEDTAVYYCAKLDVISDDLDYWGQGTQVTVSS | low polyreactivity |
| QVQLVESGGGLVQAGGSLRLICADSGRILGINAMGWYRQAPGKERELVAAISSGGSTYYADSVKGRFTISRDNAKNTVYLQMNSLKPEDTAVYYCNVGSYAGWSDHPRYGYWGQGTQVTVSS | high polyreactivity |
| QVQLVESGGGLVQAGGSLSLSCAASGSIFGDYVLGWYRQAPGKERELVAAINRGGSTYYADSVKGRFTISRDNAKNTVYLQMNSLKPEDTAVYYCAAGYPSWYYGYPYDSWGLGTQVTVSS | low polyreactivity |
| QVQLVESGGGLVQAGASLRLSCAASGRIFWHNAMGWYRQAPGKERELVAAMTRGGSTYYADSVKGRFTISRDNAKNTVYLQMNSLKPEDTAVYYCATLGSLRYYWPGYDYWGQGTQVTVSS | low polyreactivity |
| QVQLLESGGGLVQAGRSLRLSCSASGRTLVYNAMGWYRQAPGKERELVAGITNGGSTNYADSVKGRFTISRDTAKNTVYLQMNSLKPEDTAVYYCAADSRVYPYYFGDFGYWGQGTQVTVSS | low polyreactivity |
| QVQLVESGGGLVQAGGSLRLSCAASGFTFQYYAMGWYRQEPGKERELVAAISWGGGSTYYADSVKGRFTISRDNAKNTVYLQMNSLKPEDTAVYYCNAYEYLSAGYDYWGQGTQVTVSS | low polyreactivity |
| QVQLVESGGGLVQAGGSLRLSCAASGIIFRNYAMGWYRQAPGKERELVAAISWTGDSTYYADSVKGRFTISRDNAKNTVYLQMNSLKPEDTAVDYCAAEAYYGLWMDYWGQGTQVTVSS | low polyreactivity |
| QVQLVESGGGLVQAGGSLRLSCAASGRTFGRYAMGWYRQAPGKERELVATISSRGGNTYYADSVKGRFTISRDNAKNTVYLQMNSLKPEDTAVYYCAAQTYKWYDWGQGTQVTVSS | high polyreactivity |
| QVQLVESGGGLVQAGGSLRLSCAASGGIFVSYAMGWYRQAPGKEWELVAAITSGGGTSYADSVKGRFTISRDNAKNTVYLQMNSLKPEDTAVYYCNADGYLAERFVIRLDEYRHYDYWGQGTQVTVSS | low polyreactivity |
| QVQLVESGGGLVQAGGSLRLSCAASGFIFSPNALGWYRPAPGKEREFVAAIRYSGTSTSYADSVKGRFTISRDNAKNTVYLQMNSLKPEDTAVYYCNAQWRFSRGYTYNYWGQGTQVTVSS | high polyreactivity |
| QVQLVESGGGLVQAGGSLRLSCAASGRTFTLYAMGWYRQAPGKERELVASITSGTRTYYADSVKGRFTISRDNAKNTVYLQMNSLKPEDTAVYYCAKEGYLRTLHRLYDYWGQGTQVTVSS | low polyreactivity |
| QVQLVESGGGLVQAGGSLRLSCAASGRIFSRYAMGWYRQAPGKERELVAAISWSGGSTYYADSVKGRFTISRDNAKNTVYLQINSLKPEDTAVYYCAAKRQYTEYNYWGQGTQVTVSS | high polyreactivity |
| QVQLVESGGGLVQAGGSLRLSCAASGFIFARYAMGWYRQAPGKERELVATISKSGGRTYYADSVKGRFTISRDNAKNTVYLQMNSLKPEDTAVYYCATRYSTTSPGDDYWGQGTQVTVSS | high polyreactivity |
| QVQLVESGGGLVQAGGSLRLSCASSGSIFRFNVMGWYRQAPGKERELVAAITRGDSTNYADSVKGRFTISRDNAKNTVYLQMNSLKPEDTAVYYCNARLYVPYRYDYWGQGTQVTVSS | low polyreactivity |
| QVQLVESGGGLVQAGGSLRLSCAASGSIFWSNSMGWDRQAPGKERELDAAISQDGGSTNYADSVKGRFTISRDNAKNTVYLQMTSQKPEDTAVYYCAVKYWSYEPPSYSIEYGYWGQGTQVTVSS | low polyreactivity |
| QVQLVESGGGVVQAGGSLRLSCAASGRIFSVYAMVWYRQAPGKEREFVGSISWRGGRTYYADSVKGRFTISRDNAKNTVYLQMISLKPEDTAVYYCAAVSYPAVYGFDYWGQGTQVTVSS | high polyreactivity |
| QVQLVESGGGLVQAGGSLRLSCAASGSTFRTYAIGWYRQAPAKERELVAAISRSGGRTYYADSVKGRFTISRDNAMNTVYLQMNSLKPEDTAVYYCAVGDTYTYDYWGQGTQVTVSS | high polyreactivity |
| QVQLVESGGGLVQAGGSLRLSCAASGYIFPGNAMGWYRQAPGKERELVATITDDTSTNYADSVKGRFTISRDNAKNTVYLQMNSLKPEDTAVYYCAADLYYWYPYLYDYWGQGTQVTVSS | low polyreactivity |
| QVQLVESGGGLVQAGGSLRLRCAASGHIFRQYAMGWYRQAPGKERELVAAITSGGSTYYADSVKGRFTISRDNAKNTVYLEMNSLKPEDNAVYYCADKYFFSYRHGDYWGQGNQVTVSS | low polyreactivity |
| HVQLVESGGGLVQAGGSLRESCAASGRTFDDIAMGRYRQAPGKERELVAAINWSGASTYYADSVKGRFTISRDNAKNTVYLQMNSLKPEDTAVYYCAAVFWKSDSAYYEYGYWGQGTQVTVSS | low polyreactivity |
| QVQLVESGGGLVQAGGSLRLSCAASGSTFYNYAMGWYRQAPGKERELVAAITSSGDRTYYADSVKGRFTISRDNAKNTVYLQMNSLKPEDTAVYYCATRRYFRYEYWGQGTQVTVSS | low polyreactivity |

| Sequence | polyreactivity (PSR sort gate) |
| --- | --- |
| QVQLVESGGGLVQAGGSLRLSCAASGFTFGYNDMGWYRQAPGKERELVAGIRSGDDTNYADSVKGRFTISRDNAKNTVYLQMYSLKPEDTAVYYCAADRTTYTYYLPYDYWGQGTQVTVSS | low polyreactivity |
| QVQLVESGAGLVQAGGSLRISCAASGIIFTYYPMGWYRQAPGKERELVASISSSGTSTYYADSVKGRFTISRDNAKNTVYLQLNSLKPEDTAVYYCAKSYWGDNSGFPGTPYDYWGQGTQVTVSS | low polyreactivity |
| QVQLVESGGGLVQAGGSLRLSCAASGSIFYRNAMGWYRQAPGKERELVASITSGGRTNYADSVKGRFTISRDNAKNTVYLQMNSLKPEDTAVYYCARGRASYTKSGPTPYTGYGYWGQGTQVTVSS | low polyreactivity |
| QVQLVESGGGLVQAGGSLRLSCAASGSTFDYNAMGGYRQAPGKERELVAAISRGGNTYYADSVKGRFTISRDNAKNTVYLQMNSLKPEDTAVYYCAKDSYGSYRFVRNRQKAYGYWGQGTQVTVSS | low polyreactivity |
| QVQLVESGGGLVQAGGSLRLSCAASGSIFKENAMGWYRQAPGKERELVAAITSSGGNTYYADSVKGRFTISRDHAKNTVYIQMNSLKPEDTAVYYCNAGVPVRSTTTDGYWGQGTQVNVSS | high polyreactivity |
| QVQLLESGGGLVQAGGSLRLTCAASVIIFYPYAMVWYRQAPGKERELVAAISIGGGSTYYADSVKGRFTISRDNAKNTVYLQMNSLKPEDTAVYYCAAGTPYGILGYYYWGQGTQVTVSS | low polyreactivity |
| QVQLVESGGGLVQAGGSLRLSCAASGIIFVKYAMGWYRQAPGKERELVAAITSGGSTYYADSVKGRFTISRDNAKNTVYLQMNSLKPDDTAVYYCNADSWFLYYFTINGYWGQGTQVTVSS | high polyreactivity |
| QVQLVESGAGLVHAGGSLRLSCAASGRTFSSNAMGGYRQAPGKERELVAGITWGGGSTYYADSVKGRFTISRDNAKNTVYLQMYSLKPEDTAVYYCAKSAGKRGYQVDYWVQGTQVTVSS | high polyreactivity |
| QVQLVESGGGLVQAGGSLRLSCAASGLIFVKYAMGWYRQAPGKERELVAAITSTGGSTYYADSVKGRFTISRDNAKNTVYLQMNILKPEDTAVYYCATDYGYYDYWGQGTQVTVSS | low polyreactivity |
| QVQLVESGGGLVQAGGSLRLSCAASGFTFRRNAMGWYRQAPGKERELVAVITSSARTNYADSVKGRFTISRDNAKNTVYLQMNSLKPEDTAVYYCNAYRYRQSSSDKYGYWGQGTQVTVSS | high polyreactivity |
| QVQLVESGGGLVQAGGSLRLSCAASGRTFCRYPMGWYRQAPGKERELVAAISSSGITYYAESVKGRFTISRDNAKNTVYLQMNSLKPEDTEVYYCAVRWGRGFWGQGTQVTVSS | high polyreactivity |
| QVQLVESGGGLVQAGGSLRLSCAASGRIIWSNAMGWYRQAPGKERELVAGITGSGGNTYYADSVKGRFTISRDNAKNTVYLHMNSLKPEDTAVYYCNARSGSRPSSSYRYDYWGQGTQVTVSS | low polyreactivity |
| QVQLVESGGGLVQAGGSLRLSCAASGRTFYIYAMGWYRQAPGKERELVAAITWRGGRTYYADSVKGRFTISRDNAKNTVYLQMNSLKPVDTAVYYCNARSWYSFHPHDYWGQGTQVTVSS | high polyreactivity |
| QVQLVDSGGGLVQAGGSLRLSCAASGRIFRGYAMGWYRQAPGKERELVAAITSGGITNYADSVKGRFTISRDNAKNTVYLQMNRLKPEDTAVYYCNTRRGWRDFDYWGQGTQVTVSS | low polyreactivity |
| QVHLVESGGGLVQAGGSLRLSCAASGSIFTQYAMGWYRQAPGKERELVARITGSGGRTYYADSVKGRFTISRDNAKNTVYLQMNSLKPEDTAVYYCNARLYTYGRHQGPDYNYWGQGTQVTVSS | high polyreactivity |
| QVQLVESGGGLVQAGGSLRLSCAASGIFVGYTMGWYRQAPGKERELVAAIRWTDGSTYYADSVKGRFTISRDNAKNTVYLQMISLKPEDTAVYYCAADSHDPARYYYGDEFEDEYWGQGTQVTVSS | low polyreactivity |
| QVQLVESGGGLVQSGASLRLSCAASGRISRFNAMGWYRQAPGKERELVAAISSGGSTHYADSVKGRFTISRDNAKITVYLQMNSLKPEDTAVYYCAASVYRWWRLEAYYYWGQGSQVTVSS | high polyreactivity |
| QVQLVESGGGLVQAGGSLRLSCAASGGTFGSNAMGWYRPAPGKERELVAAISTTGGTTYYADSVKGRFTISRDNAKNTVYLQMNSLKPEDPAVYYCAKDGYVYGDWYTYAYDYWGQGTQVTVSS | low polyreactivity |
| QVQLVESGGRLVQAGGSLRLSCAASGRTFYHNAMGWYRQAPGKERELVAVITWSGGSTYYADSVKGRFTISRDNAKNTVYLQMNSLKPEDTAVYYCATRRYGYERILYNYWGQGTQVTVSS | high polyreactivity |
| QVQLVESGGGLVQAGGSLRLSCAASGSIFGGNAMGWYRQAPGKETELVATITVRGGSTYYADSVKGRFRISRDNAKNSVYLQMNSLKPEDTAVYYCATEEVSRYRYGYWGQGTQVTVSS | low polyreactivity |
| QVQLEESGGGLVQAGGSLRLSCAASGRTFYRYAMGWYRQAPGKERELVATISSRGTSTYYADSVKGRFTISRDNAKNTVYLQMNSLKPEDTAVYYCAVRGYAAGRHGYDYWGQGTQVTVSS | high polyreactivity |
